Results published in the supplement of paper PMC11780869.

Tested on: Bacillus subtilis
Assay: cleaved RNA product abundance (RNA/gDNA barcode ratio) relative to median wild-type variant (ratio to wild type); higher = more accumulation of the downstream cleavage product
Conditions: cleavage site: cggR-gapA (positions -7 to +36 mutated)
In short: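 Oligos with a 9% error rate were used to build barcoded, mutagenized RNase Y cleavage-site windows within truncated aprE or tetM reporter mRNAs, which were integrated into the B. subtilis chromosome. Cultures were grown in LB at 37°C between OD600 0.0003 and 0.3. Cleaved RNA was gel-selected, reverse transcribed and barcode-sequenced, as were genomic DNA barcodes, and UMIs were collapsed. Cleaved product abundance is the scaled RNA:gDNA barcode ratio, with the median construct carrying the unmutated site as reference.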

[1] = experiment (reporter, strain, medium): exp 4a: truncated aprE reporter, strain BJT201 with 2% xylose (RNase J1 expressed)
[2] = experiment (reporter, strain, medium): exp 2b: truncated aprE reporter, strain BJT200

Row | Sequence | cleaved RNA product abundance [1] | cleaved RNA product abundance [2] | cleaved RNA product abundance (experiment (reporter, strain, medium): exp 6: tetM reporter, strain 168)
1 | ACAGACGAAGGAGCCGCAAGGAAGTTATTAAGGGATGATTAATCCCTCAATATAAATATCTCTCACTTATTTAAA | 0.959 | – | –
2 | ACAGACGAAGGAGCCGCAAGGAAGTTATTAAGGTATGAATAATCCCTCAATATAAATATCTCTCACTTATTTAAA | 0.101 | – | –
3 | ACAGACGAAGGAGCCGCAAGGAAGTTATTAAGTGATGAATAATCCCTCAATATAAATATCTCTCACTTATTTAAA | 0.149 | – | –
4 | ACAGACGAAGGAGCCGCAAGGAAGTTATTAATGGATGAATAATCCCTCAATATAAATATCTCTCACTTATTTAAA | 0.162 | 0.144 | –
5 | ACAGACGAAGGAGCCGCAAGGTAGTTATTAAGGGATGAATAATCCCTCAATATAAATATCTCTCACTTATTTAAA | 1 | – | –
6 | ACAGACGAAGGAGCCGCAATAAAGTTATTAAGGGATGAATAATCCCTCAATATAAATATCTCTCACTTATTTAAA | 1.09 | 1.03 | –
7 | ACAGACGAAGGAGCCGCAATGAAATTATTAAGGGATGAATAATCCCTCAATATAAATATCTCTCACTTATTTAAA | 0.875 | 0.716 | –
8 | ACAGACGAAGGAGCCGCAATGAAATTATTAAGGGATTAATAATCCCTCAATATAAATATCTCTCACTTATTTAAA | 0.695 | – | –
9 | ACAGACGAAGGAGCCGCAATGAACTTATTAAGGGATGAATAATCCCTCAATATAAATATCTCTCACTTATTTAAA | 0.405 | – | –
10 | ACAGACGAAGGAGCCGCAATGAAGATATTAAGGCATGAATAATCCCTCAATATAAATATCTCTCACTTATTTAAA | 0.138 | – | –
11 | ACAGACGAAGGAGCCGCAATGAAGATATTAAGGGATGAATAATCCCTCAATATAAATATCTCTCACTTATTTAAA | 0.667 | – | –
12 | ACAGACGAAGGAGCCGCAATGAAGTAATTAAGGGATGAATAATCCCTCAATATAAATATCTCTCACTTATTTAAA | 0.364 | – | –
13 | ACAGACGAAGGAGCCGCAATGAAGTCATTAAGGGATGAATAATCCCTCAATATAAATATCTCTCACTTATTTAAA | – | 0.189 | –
14 | ACAGACGAAGGAGCCGCAATGAAGTTAATAAGGGATGAATAATCCTTCAATATAAATATCTCTCACTTATTTAAA | 0.263 | – | –
15 | ACAGACGAAGGAGCCGCAATGAAGTTACTAAGGGATGAATAATCCCTCAATATAAATATCTCTCACTTATTTAAA | 0.249 | – | –
16 | ACAGACGAAGGAGCCGCAATGAAGTTATCAAGGGATGAATAATCCCTCAATATAAATATCTCTCACTTATTTAAA | 0.487 | – | –
17 | ACAGACGAAGGAGCCGCAATGAAGTTATTAAAGGATGAATAATCCCTCAATATAAATATCTCTCACTTATTTAAA | 0.181 | 0.181 | –
18 | ACAGACGAAGGAGCCGCAATGAAGTTATTAACGGATGAATAATCCCTCAATATAAATATCTCTCACTTATTTAAA | 0.145 | – | –
19 | ACAGACGAAGGAGCCGCAATGAAGTTATTAAGAGATGAATAATCCCTCAATATAAATATCTCTCACTTATTTAAA | 0.204 | 0.131 | –
20 | ACAGACGAAGGAGCCGCAATGAAGTTATTAAGCGATGAATAATCCCTCAATATAAATATCTCTCACTTATTTAAA | 0.108 | 0.0928 | –

Row | Sequence | cleaved RNA product abundance [1] | cleaved RNA product abundance [2] | cleaved RNA product abundance (experiment (reporter, strain, medium): exp 6: tetM reporter, strain 168)
21 | ACAGACGAAGGAGCCGCAATGAAGTTATTAAGGAATGAATAATCCCTCAATATAAATATCTCTCACTTATTTAAA | 0.102 | 0.131 | –
22 | ACAGACGAAGGAGCCGCAATGAAGTTATTAAGGGAAGAATAATCCCTCAATATAAATATCTCTCACTTATTTAAA | 0.702 | 0.389 | –
23 | ACAGACGAAGGAGCCGCAATGAAGTTATTAAGGGATAAATAATCCCTCAATATAAATATCTCTCACTTATTTAAA | 0.659 | – | –
24 | ACAGACGAAGGAGCCGCAATGAAGTTATTAAGGGATGAAAAATCCCTCAATATAAATATCTCTCACTTATTTAAA | 0.548 | – | –
25 | ACAGACGAAGGAGCCGCAATGAAGTTATTAAGGGATGAATAAACCCTCAATATAAATATCTCTCACTTATTTAAA | 0.454 | 0.647 | –
26 | ACAGACGAAGGAGCCGCAATGAAGTTATTAAGGGATGAATAATACCTCAATATAAATATCTCTCACTTATTTAAA | 0.138 | – | –
27 | ACAGACGAAGGAGCCGCAATGAAGTTATTAAGGGATGAATAATCACTCAATATAAATATCTCTCACTTATTTAAA | 0.129 | 0.126 | –
28 | ACAGACGAAGGAGCCGCAATGAAGTTATTAAGGGATGAATAATCCATCAATATAAATATCTCTCACTTATTTAAA | 0.251 | – | –
29 | ACAGACGAAGGAGCCGCAATGAAGTTATTAAGGGATGAATAATCCCACAATATAAATATCTCTCACTTATTTAAA | 0.367 | – | –
30 | ACAGACGAAGGAGCCGCAATGAAGTTATTAAGGGATGAATAATCCCTAAATATAAATATCTCTCACTTATTTAAA | 0.792 | – | –
31 | ACAGACGAAGGAGCCGCAATGAAGTTATTAAGGGATGAATAATCCCTCAAAATAAATATCTCTCACTTATTTAAA | 0.355 | – | –
32 | ACAGACGAAGGAGCCGCAATGAAGTTATTAAGGGATGAATAATCCCTCAATATAAAAATCTCTCACTTATTTAAA | 1.03 | 0.872 | –
33 | ACAGACGAAGGAGCCGCAATGAAGTTATTAAGGGATGAATAATCCCTCAATATAAATATCTCTCACTTATTTAAA | 1.12 | 1.1 | 0.968
34 | ACAGACGAAGGAGCCGCAATGAAGTTATTAAGGGATGAATAATCCCTCAATATGAATATCTCTCACTTATTTAAA | 0.141 | – | –
35 | ACAGACGAAGGAGCCGCAATGAAGTTATTAAGGGATGAATAATCCCTCAATATTAATATCTCTCACTTATTTAAA | – | 0.226 | –
36 | ACAGACGAAGGAGCCGCAATGAAGTTATTAAGGGATGAATAATCCCTCTATATAAATATCTCTCACTTATTTAAA | 0.689 | – | –
37 | ACAGACGAAGGAGCCGCAATGAAGTTATTAAGGGATGAATAATCCCTGAATATAAATATCTCTCACTTATTTAAA | 0.713 | – | –
38 | ACAGACGAAGGAGCCGCAATGAAGTTATTAAGGGATGAATAATCCTTCAATATAAATATCTCTCACTTATTTAAA | 0.581 | – | –
39 | ACAGACGAAGGAGCCGCAATGAAGTTATTAAGGGATGAATAATCGCTCAATATAAATATCTCTCACTTATTTAAA | 0.0881 | – | –
40 | ACAGACGAAGGAGCCGCAATGAAGTTATTAAGGGATGAATAATCTCTCAATATAAATATCTCTCACTTATTTAAA | 0.845 | 0.942 | –

Row | Sequence | cleaved RNA product abundance [1] | cleaved RNA product abundance [2] | cleaved RNA product abundance (experiment (reporter, strain, medium): exp 6: tetM reporter, strain 168)
41 | ACAGACGAAGGAGCCGCAATGAAGTTATTAAGGGATGAATAATGCCTCAATATAAATATCTCTCACTTATTTAAA | – | 0.122 | –
42 | ACAGACGAAGGAGCCGCAATGAAGTTATTAAGGGATGAATAATTCCTCAATATAAATATCTCTCACTTATTTAAA | 0.517 | 0.505 | –
43 | ACAGACGAAGGAGCCGCAATGAAGTTATTAAGGGATGAATACTCCCTCAATATAAATATCTCTCACTTATTTAAA | – | 0.379 | –
44 | ACAGACGAAGGAGCCGCAATGAAGTTATTAAGGGATGAATATTCCCTCAATATAAATATCTCTCACTTATTTAAA | 0.519 | 0.573 | –
45 | ACAGACGAAGGAGCCGCAATGAAGTTATTAAGGGATGAATGATCCCTCAATATAAATATCTCTCACTTATTTAAA | 0.506 | – | –
46 | ACAGACGAAGGAGCCGCAATGAAGTTATTAAGGGATGTATAATCCCTCAATATAAATATCTCTCACTTATTTAAA | 1.53 | – | –
47 | ACAGACGAAGGAGCCGCAATGAAGTTATTAAGGGATGTATAATCCCTCAATTTAAATATCTCTCACTTATTTAAA | 0.25 | – | –
48 | ACAGACGAAGGAGCCGCAATGAAGTTATTAAGGGATTAATAATCCCTCAATATAAATATCTCTCACTTATTTAAA | 1.06 | 0.989 | –
49 | ACAGACGAAGGAGCCGCAATGAAGTTATTAAGGGCTGAATAATCCCTCAATATAAATATCTCTCACTTATTTAAA | 0.472 | 0.583 | –
50 | ACAGACGAAGGAGCCGCAATGAAGTTATTAAGGGTTGAATAATCCCTCAATATAAATATCTCTCACTTATTTAAA | – | 0.325 | –
51 | ACAGACGAAGGAGCCGCAATGAAGTTATTAAGGTATGAATAATCCCTCAATATAAATATCTCTCACTTATTTAAA | 0.146 | 0.109 | –
52 | ACAGACGAAGGAGCCGCAATGAAGTTATTAAGTGATGAATAATCCCTCAATATAAATATCTCTCACTTATTTAAA | – | 0.0987 | –
53 | ACAGACGAAGGAGCCGCAATGAAGTTATTAAGTGATGAATAATCCGTCAATATAAATATCTCTCACTTATTTAAA | 0.0953 | – | –
54 | ACAGACGAAGGAGCCGCAATGAAGTTATTAATGGATGAATAATCCCTCAATATAAATATCTCTCACTTATTTAAA | 0.202 | 0.126 | –
55 | ACAGACGAAGGAGCCGCAATGAAGTTATTATGGGATGAATAATCCCTCAATATAAATATCTCTCACTTATTTAAA | 0.464 | – | –
56 | ACAGACGAAGGAGCCGCAATGAAGTTATTTAGGGATGAATAATCCCTCAATATAAATATCTCTCACTTATTTAAA | 0.738 | – | –
57 | ACAGACGAAGGAGCCGCAATGAAGTTTTTAAGGGATGAATAATCCCTCAATATAAATATCTCTCACTTATTTAAA | 0.578 | – | –
58 | ACAGACGAAGGAGCCGCAATGAATTTATTAAGGGATGAATAATCCCTCAATATAAATATCTCTCACTTATTTAAA | 0.786 | – | –
59 | ACAGACGAAGGAGCCGCAATGTAGTTATTAAGGGATGAATAATCCCTCAATATAAATATCTCTCACTTATTTAAA | 1.43 | – | –
60 | ACAGACGAAGGAGCCGCAATTAAGTTATTAAGGGATGAATAATCCCTCAATATAAATATCTCTCACTTATTTAAA | 0.863 | 0.955 | –
